Several values for one entry are separate records, joined by “and”; a condition that tells them apart may be missing. Equal values may be shown once. Read-outs that look alike come from different tables or passages of the source.
Assays:
CD20 = molecular target: T1, CD20 (Homo sapiens, UniProt P11836); conditions: cited from earlier work
T1 construct: endogenous in cells; host or cells: patients' own cells (clinical treatment, reported from the literature)
T1 sequence (P11836 1-297): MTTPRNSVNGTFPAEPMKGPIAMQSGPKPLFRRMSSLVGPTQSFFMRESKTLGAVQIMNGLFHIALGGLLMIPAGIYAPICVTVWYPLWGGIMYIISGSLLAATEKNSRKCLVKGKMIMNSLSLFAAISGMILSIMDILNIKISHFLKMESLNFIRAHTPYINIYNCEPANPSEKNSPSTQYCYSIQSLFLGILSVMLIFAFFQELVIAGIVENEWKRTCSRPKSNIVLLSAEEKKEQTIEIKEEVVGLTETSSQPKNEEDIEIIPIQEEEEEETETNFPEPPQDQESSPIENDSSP

human V158 FcγRIIIa [1] = molecular target: T2, human V158 FcγRIIIa (Homo sapiens, UniProt P08637, F176V); assay: Binding of human WT IgG1 to human V158 FcγRIIIa (Biacore, calorimetry); conditions: present study; read-out: affinity for human V158 FcγRIIIa
T2 sequence (P08637 17-208 F176V limits assumed): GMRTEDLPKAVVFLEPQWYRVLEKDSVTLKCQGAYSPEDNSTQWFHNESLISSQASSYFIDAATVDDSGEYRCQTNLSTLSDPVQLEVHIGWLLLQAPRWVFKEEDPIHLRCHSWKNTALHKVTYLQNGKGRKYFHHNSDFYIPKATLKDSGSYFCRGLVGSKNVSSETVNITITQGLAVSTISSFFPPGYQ
Protocol: (§1) This is consistent with the literature which indicate that binding is approximately 200-500 nM, as determined by Biacore (210 nM as shown in Okazaki et al, 2004, J Mol Bio 336:1239-49; 250 nM as shown in Lazar et al, Proc Natl Acad Sci USA 103(11):4005-4010) and calorimetry (530 nM, Okazaki et al, 2004, J Mol Bio 336:1239-49).

human F158 FcγRIIIa [2] = molecular target: T3, human F158 FcγRIIIa (Homo sapiens, UniProt P08637); assay: Binding of human WT IgG1 to human F158 FcγRIIIa (Biacore, calorimetry); conditions: present study; binding lower than the 5 uM cutoff applied; read-out: affinity for human F158 FcγRIIIa
T3 sequence (P08637 17-208 limits assumed): as the sequence (P08637 17-208 F176V limits assumed) above, with V160F counted along it
Protocol: as §1

human V158 FcγRIIIa [3] = molecular target: T2, human V158 FcγRIIIa; conditions: read-out: affinity for human V158 FcγRIIIa, cited from earlier work
human F158 FcγRIIIa [4] = molecular target: T3, human F158 FcγRIIIa; conditions: read-out: affinity for human F158 FcγRIIIa, cited from earlier work
[5] = calorimetry, Okazaki et al 2004

Substance | clinical efficacy (CD20; patients homozygous or heterozygous for FcγRIIIA 158F, Carton 2002, Weng 2003) | clinical response (CD20; patients with FcγRIIIA 158 V/V homozygous genotype, Dall'Ozzo et al. 2004) | Kd (human V158 FcγRIIIa [1]) | Kd (human F158 FcγRIIIa [2]) | Kd (human V158 FcγRIIIa [3]; Biacore, Okazaki et al 2004, Lazar et al) | Kd (human V158 FcγRIIIa [3]; [5]) | Kd (human V158 FcγRIIIa [3]; literature overall) | Kd (human V158 FcγRIIIa [3]; one study, Ferrara et al 2006) | Kd (human F158 FcγRIIIa [4]; Biacore, Ferrara et al 2006) | Kd (human F158 FcγRIIIa [4]; [5]) | Kd (human F158 FcγRIIIa [4]; literature overall)
Rituxan: anti-CD20 antibody Rituxan® (rituximab) | minimally effective | better clinical response | – | – | – | – | – | – | – | – | –
human WT IgG1: Human wild type IgG1 immunoglobulin, reference for Fc receptor binding | – | – | ~240 nM | > 5000 nM | 210 nM and 250 nM | 530 nM | 200 to 500 nM | 750 nM | 5000 nM | 2700 nM | 3000 to 5000 nM

From patent publication US9040042B2, “Optimized antibodies that target HM1.24” (Xencor, Inc., priority 2006, dated 2015)
